According to publication PMC3879392, “Mutant LV^476-7AA of A-subunit of Enterococcus hirae V1-ATPase: High affinity of A3B3 complex to DF axis and low ATPase activity” (SpringerPlus, 2013):

Tested on: Nc1ncnc2c1ncn2[C@@H]1O[C@H](COP(=O)(O)OP(=O)(O)OP(=O)(O)O)[C@@H](O)[C@H]1O
Assay: purified protein
Settings: 25 mM MES-Tris pH 6.5, 4 mM MgSO4, 10% glycerol, 25 C

E. hirae V1-ATPase (A3B3DF complex) (Enterococcus hirae ATCC 9790)
Km: 400 µM
